T1: PSR2 (untagged, purified from E. coli) (P. sojae, UniProt E0W4V5 18-670)
T1 sequence: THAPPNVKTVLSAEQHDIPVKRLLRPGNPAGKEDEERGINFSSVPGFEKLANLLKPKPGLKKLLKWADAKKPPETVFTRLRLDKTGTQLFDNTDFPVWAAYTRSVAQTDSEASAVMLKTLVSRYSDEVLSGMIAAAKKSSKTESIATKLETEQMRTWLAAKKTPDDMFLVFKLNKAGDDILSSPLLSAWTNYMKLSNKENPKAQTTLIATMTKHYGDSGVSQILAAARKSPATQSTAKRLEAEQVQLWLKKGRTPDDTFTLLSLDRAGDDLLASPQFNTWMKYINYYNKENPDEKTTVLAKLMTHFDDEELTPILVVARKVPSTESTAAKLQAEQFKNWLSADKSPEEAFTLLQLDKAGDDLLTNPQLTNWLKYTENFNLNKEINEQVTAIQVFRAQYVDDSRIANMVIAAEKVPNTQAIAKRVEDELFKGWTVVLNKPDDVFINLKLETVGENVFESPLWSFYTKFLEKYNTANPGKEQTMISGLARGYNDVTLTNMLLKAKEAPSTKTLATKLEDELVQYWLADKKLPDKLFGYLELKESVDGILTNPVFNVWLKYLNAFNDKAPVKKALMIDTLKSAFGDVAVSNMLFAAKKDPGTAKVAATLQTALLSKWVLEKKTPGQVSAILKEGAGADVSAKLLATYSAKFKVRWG

B1: RCN1 (purified from E. coli) (natural protein)
chain: MAMVDEPLYPIAVLIDELKNDDIQLRLNSIRRLSTIARALGEERTRKELIPFLSENSDDDDEVLLAMAEELGVFIPFVGGIEFAHVLLPPLESLCTVEETCVREKAVESLCKIGSQMKENDLVESFVPLVKRLAGGEWFAARVSACGIFHVAYQGCTDVLKTELRATYSQLCKDDMPMVRRAAASNLGKFATTVESTFLIAEIMTMFDDLTKDDQDSVRLLAVEGCAALGKLLEPQDCVARILPVIVNFSQDKSWRVRYMVANQLYELCEAVGPDCTRTDLVPAYVRLLRDNEAEVRIAAAGKVTKFCRLLNPELAIQHILPCVKELSSDSSQHVRSALASVIMGMAPILGKDSTIEHLLPIFLSLLKDEFPDVRLNIISKLDQVNQVIGIDLLSQSLLPAIVELAEDRHWRVRLAIIEYVPLLASQLGIGFFDDKLGALCMQWLQDKVYSIREAAANNLKRLAEEFGPEWAMQHLVPQVLDMVNNPHYLHRMMVLRAISLMAPVMGSEITCSKFLPVVVEASKDRVPNIKFNVAKLLQSLIPIVDQSVVDKTIRQCLVDLSEDPDVDVRYFANQALNSIDGSTAAQS

Columns and labels:
[1] = biological target: ATB’g (Arabidopsis PP2A B subunit) (Arabidopsis thaliana) (UniProt Q8RW96); assay: ITC
[2] = biological target: PSR2 (untagged, purified from E. coli) (P. sojae) (UniProt E0W4V5); assay: ITC
[3] = biological target: T1, PSR2 (untagged, purified from E. coli); assay: pull-down

Sequence of ATB’g (Arabidopsis PP2A B subunit) (Arabidopsis thaliana) (Q8RW96 whole entry): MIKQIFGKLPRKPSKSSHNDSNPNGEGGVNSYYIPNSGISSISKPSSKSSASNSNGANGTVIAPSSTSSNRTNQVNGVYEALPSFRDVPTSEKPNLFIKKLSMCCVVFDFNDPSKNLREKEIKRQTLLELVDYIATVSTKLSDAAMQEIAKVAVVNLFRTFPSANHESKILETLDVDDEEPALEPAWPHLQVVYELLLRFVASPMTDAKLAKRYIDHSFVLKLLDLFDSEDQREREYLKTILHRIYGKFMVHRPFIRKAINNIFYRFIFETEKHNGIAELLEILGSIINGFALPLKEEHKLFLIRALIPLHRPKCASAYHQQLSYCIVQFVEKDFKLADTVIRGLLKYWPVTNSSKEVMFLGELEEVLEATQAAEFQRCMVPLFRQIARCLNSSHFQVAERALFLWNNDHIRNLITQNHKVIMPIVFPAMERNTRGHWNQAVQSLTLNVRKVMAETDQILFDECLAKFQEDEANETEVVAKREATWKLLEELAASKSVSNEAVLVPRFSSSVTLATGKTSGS

| Molecule | Kd [1] [nM] | Kd [2] [nM] | binding result [3] |
| --- | --- | --- | --- |
| 6×His-PDF1 (full-length PDF1, purified from E. coli) (from UniProt Q9S728 24-306) (natural protein) | 3330 | 350 | – |
| B1 | – | – | binds |
